According to patent publication US20250388664A1 (BIOARCTIC, published 2025):
Residue numbers refer to the chain shown, from its start. In names and notes the source's numbering stands.

Legend:
[1] = target: T1, hTfR1 (recombinant, construct not specified) (human, UniProt P02786 89-760, limits assumed); experiment: SPR (Biacore 8K), single-cycle kinetics, hTfR1 captured through its N-terminal DYKDDDDK tag, scFv injected in 5 steps (3-fold, from 700 or 400 nM)
T1 construct: also called biotinylated hTfR1
T1 sequence (P02786 89-760 limits assumed): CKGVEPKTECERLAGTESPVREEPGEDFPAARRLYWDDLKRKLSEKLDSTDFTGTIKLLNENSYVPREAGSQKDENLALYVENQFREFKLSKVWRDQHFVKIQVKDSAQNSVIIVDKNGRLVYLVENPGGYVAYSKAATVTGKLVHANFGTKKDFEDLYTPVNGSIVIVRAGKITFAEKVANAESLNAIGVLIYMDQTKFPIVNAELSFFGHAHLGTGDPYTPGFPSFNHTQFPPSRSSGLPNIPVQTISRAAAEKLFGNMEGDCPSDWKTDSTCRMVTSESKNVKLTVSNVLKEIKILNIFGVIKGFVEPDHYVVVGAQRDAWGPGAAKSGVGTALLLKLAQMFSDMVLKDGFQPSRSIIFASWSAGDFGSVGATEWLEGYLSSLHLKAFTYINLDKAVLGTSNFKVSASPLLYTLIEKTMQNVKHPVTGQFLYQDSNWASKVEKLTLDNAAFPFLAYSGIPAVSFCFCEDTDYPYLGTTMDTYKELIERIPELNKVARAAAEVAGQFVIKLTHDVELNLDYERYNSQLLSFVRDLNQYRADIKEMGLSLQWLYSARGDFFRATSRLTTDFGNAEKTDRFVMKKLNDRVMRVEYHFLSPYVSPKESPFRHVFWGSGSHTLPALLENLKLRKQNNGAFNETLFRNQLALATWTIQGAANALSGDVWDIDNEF
Protocol: Binding to hTfR1 of six different purified scFv variants from Example 24 was evaluated by surface plasmon resonance (SPR) using Biacore 8K (Cytiva). 30 μg/ml of […] Tag mAb FG4R (Thermo Fisher Scientific, MA1-91878) in 10 mM acetate buffer, pH 4.5 was immobilized on a CM5 sensor chip (Cytiva, #BR100399) using the amine coupling kit type 2 (Cytiva, #BR100633) according to the manufacturer's instruction, resulting in immobilization levels of approximately 10000 RU. hTfR1 was captured via an N-terminal […] tag. To this end, the receptor was injected over the chip with a contact time of 60 s at a flow rate of 10 μl/min. […] Interaction was measured using the single cycle kinetics method with a contact time of 120 s at a flow rate of 30 μl/min followed by a dissociation time of 600 s. Regeneration of the surface between cycles was done by injecting 10 mM glycine-HCl pH 1.7 with a contact time of 30 s and a flow rate of 30 μl/min. The binding modules were diluted in HBS-EP+ (Cytiva, #BR100669). Experiments were performed at 25° C.

AβpE3-40 monomer = target: T2, AβpE3-40 monomer (UniProt P05067 674-711, pyroglutamate at position 3 (N-terminal residue)); experiment: SPR, antibody immobilised, monomer injected, 1:1 fit
T2 construct: range 3-40 (Aβ numbering); Synthetic peptide (Bachem/Anaspec), verified monomeric by SEC; also called monomeric AβpE3-40
T2 sequence (P05067 674-711): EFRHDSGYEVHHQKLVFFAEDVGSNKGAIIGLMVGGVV

[2] = target: T3, truncated cTfR1 of SEQ ID NO:123 (cynomolgus monkey, UniProt Q5RDH6 122-760 (Pongo abelii entry)); experiment: SPR, FLAG-captured TfR1, bispecific injected, 1:1 fit
T3 construct: also called cynomolgus TfR1
T3 chain: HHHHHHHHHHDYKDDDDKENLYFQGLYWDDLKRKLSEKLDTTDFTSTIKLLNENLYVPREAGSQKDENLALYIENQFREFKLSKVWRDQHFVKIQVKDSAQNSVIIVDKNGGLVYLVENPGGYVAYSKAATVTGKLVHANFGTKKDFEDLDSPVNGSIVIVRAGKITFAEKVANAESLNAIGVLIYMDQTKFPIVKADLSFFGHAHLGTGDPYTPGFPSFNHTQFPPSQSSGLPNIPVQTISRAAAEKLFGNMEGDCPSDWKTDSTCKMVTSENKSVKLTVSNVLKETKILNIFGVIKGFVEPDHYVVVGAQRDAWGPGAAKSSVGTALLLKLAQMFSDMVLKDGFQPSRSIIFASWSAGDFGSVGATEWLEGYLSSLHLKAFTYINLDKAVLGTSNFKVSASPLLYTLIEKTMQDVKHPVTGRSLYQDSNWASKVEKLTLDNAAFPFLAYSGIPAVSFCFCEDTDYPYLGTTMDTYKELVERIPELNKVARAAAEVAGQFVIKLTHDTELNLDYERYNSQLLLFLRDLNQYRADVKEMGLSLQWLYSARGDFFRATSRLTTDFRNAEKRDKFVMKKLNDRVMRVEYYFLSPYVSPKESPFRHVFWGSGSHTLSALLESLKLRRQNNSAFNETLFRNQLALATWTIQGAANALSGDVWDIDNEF
Protocol: (§1) Binding of the purified bispecific binding molecules produced in Example 47 to human and cynomolgus TfR1 was evaluated using SPR on a Biacore 8K instrument (Cytiva). […] The interaction was measured using the single cycle kinetics method with a contact time of 120 s at a flow rate of 30 μl/min followed by a dissociation time of 600 s. Regeneration of the surface between cycles was done by injecting 10 mM glycine-HCl, pH 1.7. The binding data was fitted to a 1:1 interaction model. The tested molecules were diluted in HBS-EP+ (Cytiva, #BR100669). Experiments were performed at 25° C.

[3] = target: T4, truncated hTfR1 of SEQ ID NO:122 (human, UniProt P02786 122-760); experiment: as above
T4 construct: also called human TfR1; Human TfR1
Protocol: as §1

[4] = target: T5, ectodomain of human TfR1 (His10-hTfR1; SEQ ID NO:110) (human, UniProt P02786 89-760); experiment: BLI: His-tagged Fab loaded from cell supernatant on anti-Fab sensors, hTfR1 ectodomain at 3.75 µg/ml in solution, 300 s association, 300 s dissociation
T5 construct: also called ectodomain of hTfR1
T5 sequence (P02786 other isoform, or with tags, fused parts or gaps): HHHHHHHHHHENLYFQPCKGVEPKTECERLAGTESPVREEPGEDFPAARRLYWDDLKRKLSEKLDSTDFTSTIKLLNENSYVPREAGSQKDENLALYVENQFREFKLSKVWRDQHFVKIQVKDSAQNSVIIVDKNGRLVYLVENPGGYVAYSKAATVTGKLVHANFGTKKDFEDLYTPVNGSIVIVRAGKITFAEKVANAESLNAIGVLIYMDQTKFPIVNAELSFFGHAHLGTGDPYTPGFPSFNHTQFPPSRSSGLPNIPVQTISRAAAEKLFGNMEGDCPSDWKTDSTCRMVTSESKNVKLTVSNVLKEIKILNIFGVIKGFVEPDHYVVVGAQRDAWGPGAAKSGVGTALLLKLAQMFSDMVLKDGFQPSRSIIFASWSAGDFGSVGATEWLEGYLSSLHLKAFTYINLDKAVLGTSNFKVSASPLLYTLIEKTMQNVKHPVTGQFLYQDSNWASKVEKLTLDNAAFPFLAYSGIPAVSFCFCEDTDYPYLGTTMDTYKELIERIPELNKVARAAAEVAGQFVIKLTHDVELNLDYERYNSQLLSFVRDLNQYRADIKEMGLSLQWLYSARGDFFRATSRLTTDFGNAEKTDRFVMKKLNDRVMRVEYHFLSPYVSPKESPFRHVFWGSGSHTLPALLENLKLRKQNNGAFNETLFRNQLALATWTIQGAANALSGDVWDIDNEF
Description: The generated alanine variants were expressed as single mutant, His-tagged Fabs by transient transfection of Chinese hamster ovary cells (ExpiCHO; Thermo Fisher Scientific) according to the manufacturer's instructions. Clarified media, into which the Fabs had been secreted, was used to assess binding to hTfR1 by BLI (Octet RED384, ForteBio). The expressed Fabs were loaded from the cell supernatants onto anti-Fab biosensors during 240 s. Thereafter, association of ectodomain of hTfR1 (SEQ ID NO:110), diluted to 3.75 μg/ml in 1× Kinetics buffer (ForteBio), to the loaded sensors was measured for 300 s, followed by dissociation for 300 s.

B1: h26D3-HC6 (scFv)
scFv: EVQLVQSGAEVKKPGSSVKVSCKASGYIFTDYNMDWVRQAPGQGLEWIGDINPDADTTSYNEKFKGRATLTVDKSTSTAYMELSSLRSEDTAVYYCARGGYSGSSYYHPMDYWGQGTLVTVSSGGGGSGGGGSGGGGSDIQMTQSPSSVSASVGDRVTITCKSSQSLLYSTNQKNYLAWYQQKPGKAPKLLIYWASTRESGVPSRFSGSGSGTDFTLTISSLQPEDFATYYCQQYFIYPRTFGQGTKVEIK
notes: also called scFv h26D3-HC6
[1]
  binding result: binds

B2: h26D3-HC6_DS (scFv)
scFv: B1 scFv with G44C, Q244C
[1]
  binding result: binds

B3: h26D3-LC1 (scFv)
scFv: B1 scFv with A55Y, Y169A
[1]
  binding result: binds

B4: BA007 (bispecific antibody, human IgG1, kappa)
light: EIVLTQSPLSLSVTLGQSASISCRSSQSLLDSNGKTYLHWFILRPGQSPRRLIYLVSILDSGVPDRFSGSGSGTDFTLKISRVEAEDVGVYYCVQGTHFPFTFGSGTKLEIKRTVAAPSVFIFPPSDEQLKSGTASVVCLLNNFYPREAKVQWKVDNALQSGNSQESVTEQDSKDSTYSLSSTLTLSKADYEKHKVYACEVTHQGLSSPVTKSFNRGEC
heavy 1: not shown
heavy 2: EVQLVQSGAEVVKPGASVRLSCKASGYSFTGFTMNWVRQALGQGLEWMGLINPYNGVTTYNQKFKGRLTMTRDMSTRTVYMDLSSLTYEDTAVYYCTREGNWEGVYWGQGTLVTVSSASTKGPSVFPLAPSSKSTSGGTAALGCLVKDYFPEPVTVSWNSGALTSGVHTFPAVLQSSGLYSLSSVVTVPSSSLGTQTYICNVNHKPSNTKVDKKVEPKSCDKTHTCPPCPAPELLGGPSVFLFPPKPKDTLMISRTPEVTCVVVDVSHEDPEVKFNWYVDGVEVHNAKTKPREEQYNSTYRVVSVLTVLHQDWLNGKEYKCAVSNKALPAPIEKTISKAKGQPREPQVYTLPPCRDELTKNQVSLWCLVKGFYPSDIAVEWESNGQPENNYKTTPPVLDSDGSFFLYSKLTVDKSRWQQGNVFSCSVMHEALHNHYTQKSLSLSPGGGGGSGGGGSGGGGSGGGGSDIQMTQSPSSVSASVGDRVTITCKSSQSLLYSTNQKNYLAWYQQKPGKAPKLLIYWASTRESGVPSRFSGSGSGTDFTLTISSLQPEDFATYYCQQYFIYPRTFGCGTKVEIKGGGGSGGGGSGGGGSGGGGSEVQLVQSGAEVKKPGSSVKVSCKASGYIFTDYNMDWVRQAPGQCLEWIGDINPDADTTSYNEKFKGRATLTVDKSTSTAYMELSSLRSEDSAVYYCARGGYSGSSYYHPMDYWGQGTLVTVKS
AβpE3-40 monomer
  Kd: 2.1 nM
  koff: 0.00012 s⁻¹
  kon: 54000 M⁻¹ s⁻¹
[2]
  Kd: 565 nM
  koff: 0.011 s⁻¹
  kon: 19000 M⁻¹ s⁻¹
[3]
  Kd: 186 nM
  koff: 0.004 s⁻¹
  kon: 22000 M⁻¹ s⁻¹

B5: BA006 (bispecific antibody, human IgG1, kappa)
light: B4 light
heavy 1: not shown
heavy 2: B4 heavy 2 with S690T
AβpE3-40 monomer
  Kd: 2.3 nM
  koff: 0.00012 s⁻¹
  kon: 52000 M⁻¹ s⁻¹
[2]
  Kd: 552 nM
  koff: 0.011 s⁻¹
  kon: 20000 M⁻¹ s⁻¹
[3]
  Kd: 189 nM
  koff: 0.0041 s⁻¹
  kon: 22000 M⁻¹ s⁻¹

B6: h26D3-HC6, VL-first (scFv)
scFv: DIQMTQSPSSVSASVGDRVTITCKSSQSLLYSTNQKNYLAWYQQKPGKAPKLLIYWASTRESGVPSRFSGSGSGTDFTLTISSLQPEDFATYYCQQYFIYPRTFGQGTKVEIKGGGGSGGGGSGGGGSEVQLVQSGAEVKKPGSSVKVSCKASGYIFTDYNMDWVRQAPGQGLEWIGDINPDADTTSYNEKFKGRATLTVDKSTSTAYMELSSLRSEDTAVYYCARGGYSGSSYYHPMDYWGQGTLVTVSS
[1]
  binding result: binds

B7: h26D3-LC1_DS, VL-first (scFv)
scFv: DIQMTQSPSSVSASVGDRVTITCKSSQSLLASTNQKNYLAWYQQKPGKAPKLLIYWASTRESGVPSRFSGSGSGTDFTLTISSLQPEDFATYYCQQYFIYPRTFGCGTKVEIKGGGGSGGGGSGGGGSGGGGSEVQLVQSGAEVKKPGSSVKVSCKASGYIFTDYNMDWVRQAPGQCLEWIGDINPDYDTTSYNEKFKGRATLTVDKSTSTAYMELSSLRSEDTAVYYCARGGYSGSSYYHPMDYWGQGTLVTVSS
[1]
  binding result: binds

B8: h26D3 variant HC1 Fab (Fab, V domains shown)
VH: EVQLVQSGAEVKKPGSSVKVSCKASGYIFTAYNMDWVRQAPGQGLEWIGDINPDYDTTSYNEKFKGRATLTVDKSTSTAYMELSSLRSEDTAVYYCARGGYSGSSYYHPMDYWGQGTLVTVSS
VL: DIQMTQSPSSVSASVGDRVTITCKSSQSLLYSTNQKNYLAWYQQKPGKAPKLLIYWASTRESGVPSRFSGSGSGTDFTLTISSLQPEDFATYYCQQYFIYPRTFGQGTKVEIK
notes: Single-mutant His-tagged Fab; also called D31A
[4]
  binding result: binds

B9: h26D3 variant HC9 Fab (Fab, V domains shown)
VH: B8 VH with A31D, Y101A
VL: B8 VL
notes: Single-mutant His-tagged Fab; also called Y101A
[4]
  binding result: binds

B10: h26D3 variant LC3 Fab (Fab, V domains shown)
VH: B8 VH with A31D
VL: B8 VL with Y55A
notes: Single-mutant His-tagged Fab; also called Y55A
[4]
  binding result: binds

B11: h26D3 variant HC12 Fab (Fab, V domains shown)
VH: B8 VH with A31D, D111A
VL: B8 VL
notes: Single-mutant His-tagged Fab; also called D111A
[4]
  binding result: binds

B12: h26D3 variant HC13 Fab (Fab, V domains shown)
VH: B8 VH with A31D, Y112A
VL: B8 VL
notes: Single-mutant His-tagged Fab; also called Y112A
[4]
  binding result: binds

B13: h26D3 variant LC4 Fab (Fab, V domains shown)
VH: B8 VH with A31D
VL: B8 VL with W56A
notes: Single-mutant His-tagged Fab; also called W56A
[4]
  binding result: binds

B14: h26D3 variant HC7 Fab (Fab, V domains shown)
VH: B8 VH with A31D, D56A
VL: B8 VL
notes: Single-mutant His-tagged Fab; also called D56A
[4]
  binding result: binds

B15: h26D3 variant LC2 Fab (Fab, V domains shown)
VH: B8 VH with A31D
VL: B8 VL with Y38A
notes: Single-mutant His-tagged Fab; also called Y38A
[4]
  binding result: binds
